This series has as its system MSI-H or dMMR endometrial cancer. It counts as in vivo, human. As for the experimental part: Endometrial cancer subjects meeting inclusion criteria were first tested for MMR/MSI status by immunohistochemical or PCR methods, and then grouped according to the MSI-H/dMMR test results; for non-MSI-H/non-dMMR subjects, an anti-PD-L1 antibody and anlotinib hydrochloride (cohort I) were administered, while for MSI-H or dMMR subjects, an anti-PD-L1 antibody (cohort II) was administered, and for patients with disease under control (CR + PR + SD) and tolerable adverse reactions, the administration could be continued until clinical benefits were lost, until the toxicity was intolerable, until PD/iCPD was given by efficacy evaluation, or until the investigator deemed further medication inappropriate. Efficacy evaluations were performed every 6 weeks (42 days) ± 3 days, starting on day 1 of treatment cycle 1, and the efficacy evaluations were performed once every 12 weeks (84 days) ± 3 days after 54 weeks, until the subjects developed disease progression confirmed by oncologic imaging. 1) Histologically or cytologically confirmed unresectable recurrent or metastatic advanced endometrial cancer (previously received 1-2 lines of systemic standard chemotherapy and failed or was intolerant; preliminary neoadjuvant or adjuvant chemotherapy was allowed). 2) It was confirmed that there was at least one measurable lesion according to the Response Evaluation Criteria in Solid Tumors (RECIST 1.1). 3) Age: ≥18 years; ECOG PS scoring: 0-1; an expected survival time of more than 3 months. Anti-PD-L1 antibody injection hu5G11-hIgG1: 1200 mg of the anti-PD-L1 antibody injection (strength: 600 mg/20 mL) was diluted to 250 mL with normal saline, and the infusion time was 60 ± 10 min (from the beginning of the infusion of the anti-PD-L1 antibody injection until the end of the infusion of the anti-PD-L1 antibody injection and the completion of flushing the tube with normal saline (20 mL recommended)). The anti-PD-L1 antibody injection was administered on the first day, and once every 21 days, that is, 21 days were counted as a treatment cycle (d1/q3w). Safety evaluation criteria: the severity of adverse events was determined using the NCI-CTC AE 5.0 criteria. Effectiveness evaluation criteria: disease status was determined using RECIST 1.1, iRECIST criteria. RECIST 1.1 criteria were used as the primary criteria, and iRECIST criteria were used to confirm efficacy. That is, subjects determined to be disease progression (PD) according to RECIST 1.1 criteria were further confirmed according to iRECIST criteria to determine whether to take further medication observation. Primary endpoint: objective response rate (ORR) for IRC evaluation Secondary endpoint: (1) objective response rate (ORR), disease control rate (DCR), duration of response (DOR), progression-free survival (PFS), overall survival (OS), DOR rate (≥ 6 months), and the like evaluated by investigators; (2) the incidence and severity of adverse events (AEs) and serious adverse events (SAEs), and abnormal laboratory test indicators.

[1] abbreviates: cohort II, after at least 2 cycles of treatment.
[2] abbreviates: cohort II, after at least 2 cycles of treatment, listed as anti-PD-L1 antibody.

Like-named read-outs stand apart in the source and are kept apart here.

B1: Cohort II: anti-PD-L1 humanized monoclonal antibody hu5G11-hIgG1, prepared as described in WO2016022630, given as injection (antibody, V domains shown)
VH: QITLKESGPTLVKPTQTLTLTCTVSGFSLSTYGVHWIRQPPGKALEWLGVIWRGVTTDYNAAFMSRLTITKDNSKNQVVLTMNNMDPVDTATYYCARLGFYAMDYWGQGTLVTVSS
VL: DIQMTQSPSSLSASVGDRVTITCKASQSVSNDVAWYQQKPGKAPKLLIYYAANRYTGVPDRFSGSGYGTDFTFTISSLQPEDIATYFCQQDYTSPYTFGQGTKLEIK
modifications: hIgG1 constant regions; VH of hu5G11-hIgG1 and hu5G11-hIgG4; VL of hu5G11-hIgG1 and hu5G11-hIgG4
Turning to B1, the “best response CR, number of subjects” value (cohort II, MSI-H or dMMR subjects, after at least 2 cycles of treatment, RECIST 1.1/iRECIST, antibody 1200 mg d1/q3w) was 0/6. Besides, under setting [1], the “DCR, number of subjects” value is listed as 3/6; the “ORR, number of subjects” value is recorded as “⅙”; the “best response CR, ratio” value is recorded as “(0.00%)”; the “best response PD, ratio” value is listed as “(50.00%)”. In addition, under setting [1], the “best response PR (partial response), number of subjects” value is reported as “⅙”; the “best response PR, ratio” value is “(16.67%)”; the “best response SD (stable disease), number of subjects” value is 2/6; the “best response SD, ratio” value is reported as “(33.33%)”. Besides, under setting [1], the “disease control rate (DCR)” value was “(50.00%)” and the “objective response rate (ORR)” value is reported as “(16.67%)”. Further, under setting [2], the “disease control rate (DCR)” value came to 50.00% and the “objective response rate (ORR)” value worked out at 16.67%. Further, for the setting “human, in vivo”, the adverse reaction incidence is listed as 67% and the “incidence of adverse reactions above grade 3” value turned out to be 16%.

The values above are taken from patent US20230310596A1, “DRUG FOR TREATING TUMOR” (priority 2020, published 2023).
